Experimental data taken from patent US20160185837A1 (AstraZeneca / MedImmune, published 2016).
Ends that are not written are not given here.

Experiments:
Assay in all cases: cell-based or functional assay
[1] = target: human GLP-1 receptor (human, UniProt P43220 24-463)
[2] = target: human glucagon receptor (human, UniProt P47871 26-477)
[3] = target: T1, human GIP receptor (human, UniProt P48546 22-466)
T1 sequence (looked up): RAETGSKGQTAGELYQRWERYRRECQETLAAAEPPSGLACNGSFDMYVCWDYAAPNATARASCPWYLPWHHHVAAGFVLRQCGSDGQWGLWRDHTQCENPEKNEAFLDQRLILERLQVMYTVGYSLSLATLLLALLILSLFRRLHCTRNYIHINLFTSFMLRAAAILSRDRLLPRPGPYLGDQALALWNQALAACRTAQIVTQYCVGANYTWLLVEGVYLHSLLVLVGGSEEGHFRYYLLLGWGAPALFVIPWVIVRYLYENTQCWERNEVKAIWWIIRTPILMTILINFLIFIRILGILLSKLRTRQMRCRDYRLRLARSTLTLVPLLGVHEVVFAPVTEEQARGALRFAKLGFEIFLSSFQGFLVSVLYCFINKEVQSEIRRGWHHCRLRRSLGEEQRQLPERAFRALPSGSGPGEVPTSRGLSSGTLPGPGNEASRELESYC

[4] = target: T2, mouse GLP-1 receptor (mouse, UniProt O35659 22-463)
T2 sequence (looked up): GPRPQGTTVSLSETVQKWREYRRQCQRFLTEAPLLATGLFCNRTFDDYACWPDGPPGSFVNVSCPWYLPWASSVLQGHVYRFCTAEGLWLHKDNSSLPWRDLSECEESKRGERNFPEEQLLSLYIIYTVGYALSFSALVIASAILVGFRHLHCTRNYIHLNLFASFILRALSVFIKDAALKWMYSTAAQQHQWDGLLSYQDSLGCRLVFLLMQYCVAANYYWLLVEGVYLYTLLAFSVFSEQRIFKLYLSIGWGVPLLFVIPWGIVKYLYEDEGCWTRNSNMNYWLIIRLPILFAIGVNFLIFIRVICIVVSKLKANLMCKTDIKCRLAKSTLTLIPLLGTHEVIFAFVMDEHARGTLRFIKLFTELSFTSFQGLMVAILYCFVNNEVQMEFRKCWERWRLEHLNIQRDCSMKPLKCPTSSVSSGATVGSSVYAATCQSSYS

[5] = target: T3, rat GLP-1 receptor (rat, UniProt P32301 22-463)
T3 sequence (looked up): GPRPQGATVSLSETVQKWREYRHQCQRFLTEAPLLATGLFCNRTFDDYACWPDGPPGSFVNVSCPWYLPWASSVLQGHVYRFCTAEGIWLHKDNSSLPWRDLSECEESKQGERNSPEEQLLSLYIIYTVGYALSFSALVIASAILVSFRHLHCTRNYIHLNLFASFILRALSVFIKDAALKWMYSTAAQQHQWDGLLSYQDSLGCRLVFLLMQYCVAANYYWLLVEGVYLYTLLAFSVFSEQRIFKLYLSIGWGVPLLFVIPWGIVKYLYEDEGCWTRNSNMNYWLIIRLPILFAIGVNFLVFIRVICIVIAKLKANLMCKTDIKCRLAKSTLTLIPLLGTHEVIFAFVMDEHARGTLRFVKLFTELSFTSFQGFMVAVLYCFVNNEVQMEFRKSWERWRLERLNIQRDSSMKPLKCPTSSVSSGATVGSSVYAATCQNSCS

[6] = target: T4, rat GIP receptor (rat, UniProt P43219 19-455)
T4 sequence (looked up): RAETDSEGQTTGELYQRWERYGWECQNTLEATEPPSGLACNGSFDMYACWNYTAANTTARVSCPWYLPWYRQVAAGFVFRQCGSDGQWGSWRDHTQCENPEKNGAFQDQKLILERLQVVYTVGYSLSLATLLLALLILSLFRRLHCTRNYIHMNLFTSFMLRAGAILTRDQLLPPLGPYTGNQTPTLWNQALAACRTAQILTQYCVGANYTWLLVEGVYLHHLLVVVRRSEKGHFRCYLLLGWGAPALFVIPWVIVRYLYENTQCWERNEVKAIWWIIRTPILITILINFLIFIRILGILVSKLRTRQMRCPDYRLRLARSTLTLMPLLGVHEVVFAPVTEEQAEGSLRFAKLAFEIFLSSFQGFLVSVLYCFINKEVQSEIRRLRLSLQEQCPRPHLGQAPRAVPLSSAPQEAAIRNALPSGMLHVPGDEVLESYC

[7] = target: T5, mouse GIP receptor (mouse, UniProt Q0P543 19-460)
T5 sequence (looked up): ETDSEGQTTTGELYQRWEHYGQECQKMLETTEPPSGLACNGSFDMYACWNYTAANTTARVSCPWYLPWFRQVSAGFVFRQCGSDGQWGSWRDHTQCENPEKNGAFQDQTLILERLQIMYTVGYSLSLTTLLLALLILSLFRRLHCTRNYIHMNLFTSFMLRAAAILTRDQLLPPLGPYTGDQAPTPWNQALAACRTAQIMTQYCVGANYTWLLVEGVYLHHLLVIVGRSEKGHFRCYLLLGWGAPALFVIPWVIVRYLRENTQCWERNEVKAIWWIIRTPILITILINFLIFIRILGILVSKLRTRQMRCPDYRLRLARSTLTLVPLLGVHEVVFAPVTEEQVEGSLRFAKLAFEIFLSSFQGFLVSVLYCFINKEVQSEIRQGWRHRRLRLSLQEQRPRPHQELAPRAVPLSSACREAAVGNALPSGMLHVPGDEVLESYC

B1: IP024 (Fc fusion)
chain: YSEGTFTSDYSKLLEEEAVRLFIEWLLAGAAAGGSGSTASSGSGSATGGGGAATHTCPPCPAPEF
[1]
  cAMP EC50: 0.095 nM
  cAMP EC50, Batch 2: 0.16 nM
[2]
  cAMP EC50: 17 nM
  cAMP EC50, Batch 2: 25 nM
[3]
  cAMP EC50: 0.0071 nM
  cAMP EC50, Batch 2: 0.01 nM
[4]
  cAMP EC50: 1.1 nM
[5]
  cAMP EC50: 0.083 nM
[6]
  cAMP EC50: 0.047 nM

B2: IP085 (Fc fusion)
chain: YSEGTFTSDYSKLLEEEAVRLFIEWLLAGAPPGGSGSTASSGSGSATGGGGAATHTCPPCPAPEF
[1]
  cAMP EC50: 0.15 nM
  cAMP EC50, Batch 4: 0.1 nM
[2]
  cAMP EC50: 7.1 nM
  cAMP EC50, Batch 4: 3.6 nM
[3]
  cAMP EC50: 0.0099 nM
  cAMP EC50, Batch 4: 0.0065 nM
[4]
  cAMP EC50: 0.95 nM
  cAMP EC50, Batch 4: 0.58 nM
[7]
  cAMP EC50: 0.72 nM
  cAMP EC50, Batch 4: 0.21 nM
[5]
  cAMP EC50: 0.1 nM
  cAMP EC50, Batch 4: 0.023 nM
[6]
  cAMP EC50: 0.15 nM
  cAMP EC50, Batch 4: 0.031 nM

B3: IP124 (Fc fusion)
chain: YSEGTFTSDYSKLLEEEAVRLFIEWLVKGAAAGGSGSTASSGSGSATGGGGAATHTCPPCPAPEF
[1]
  cAMP EC50: 0.091 nM
[3]
  cAMP EC50: 0.009 nM
[4]
  cAMP EC50: 0.42 nM
[7]
  cAMP EC50: 130 nM
[5]
  cAMP EC50: 0.062 nM
[6]
  cAMP EC50: 0.31 nM

B4: IP244 (Fc fusion)
chain: YSEGTFTSDVSKLLEEEAVRLFIEWLLAGAPPGGSGSTASSGSGSATGGGGAATHTCPPCPAPEF
[1]
  cAMP EC50: 0.18 nM
[3]
  cAMP EC50: 0.042 nM
[4]
  cAMP EC50: 0.79 nM
[7]
  cAMP EC50: 3.6 nM
[5]
  cAMP EC50: 0.066 nM
[6]
  cAMP EC50: 0.17 nM

B5: IP222 (Fc fusion)
chain: YSEGTFTSDYSKLLEEEAVRLFIEWLKNGGPSSGAPPPSAAAGGSGSTASSGSGSATGGGGAATHTCPPCPAPEF
[1]
  cAMP EC50: 0.14 nM
[2]
  cAMP EC50: 590 nM
[3]
  cAMP EC50: 0.015 nM
[4]
  cAMP EC50: 0.46 nM
[7]
  cAMP EC50: 160 nM
[5]
  cAMP EC50: 0.058 nM
[6]
  cAMP EC50: 0.72 nM

B6: IP147 (Fc fusion)
chain: YSEGTFTSDYSKLLEEEAVRLFIEWLVKGPAPPGGSGSTASSGSGSATGGGGAATHTCPPCPAPEF
[1]
  cAMP EC50: 0.067 nM
[2]
  cAMP EC50: 130 nM
[3]
  cAMP EC50: 0.0037 nM
[4]
  cAMP EC50: 8.5 nM
[5]
  cAMP EC50: 1.1 nM
[6]
  cAMP EC50: 6.8 nM

B7: IP249 (Fc fusion)
chain: YSEGTFTSDYSKLLEEEAVRLFIEWLLAQKAAAGGSGSTASSGSGSATGGGGAATHTCPPCPAPEF
[1]
  cAMP EC50: 2.6 nM
[3]
  cAMP EC50: 0.019 nM
[4]
  cAMP EC50: 15 nM
[7]
  cAMP EC50: 180 nM
[5]
  cAMP EC50: 0.15 nM
[6]
  cAMP EC50: 0.19 nM

B8: IP228 (Fc fusion)
chain: YSEGTFTSDYSKLLEEEAVRLFIEWLKNGGAAAGGSGSTASSGSGSATGGGGAATHTCPPCPAPEF
[1]
  cAMP EC50: 0.16 nM
[2]
  cAMP EC50: 1400 nM
[3]
  cAMP EC50: 0.014 nM
[4]
  cAMP EC50: 0.69 nM
[5]
  cAMP EC50: 0.096 nM
[6]
  cAMP EC50: 7 nM

B9: IP149 (Fc fusion)
chain: YSQGTFTSDYSKLLEEEAVRLFIEWLVKGPAPPGGSGSTASSGSGSATGGGGAATHTCPPCPAPEF
[1]
  cAMP EC50: 0.07 nM
  cAMP EC50, Batch 2: 0.12 nM
[2]
  cAMP EC50: 0.2 nM
  cAMP EC50, Batch 2: 0.23 nM
[3]
  cAMP EC50: 0.0081 nM
  cAMP EC50, Batch 2: 0.012 nM
[4]
  cAMP EC50, Batch 2: 0.37 nM
[7]
  cAMP EC50, Batch 2: 53 nM
[5]
  cAMP EC50, Batch 2: 0.031 nM
[6]
  cAMP EC50, Batch 2: 0.19 nM

B10: IP245 (Fc fusion)
chain: YSEGTFTSDYSIAMDEEAVRLFIEWLVKGPAAAGGSGSTASSGSGSATGGGGAATHTCPPCPAPEF
[1]
  cAMP EC50: 0.46 nM
[3]
  cAMP EC50: 0.15 nM
[4]
  cAMP EC50: 4.8 nM
[7]
  cAMP EC50: 190 nM
[5]
  cAMP EC50: 0.4 nM
[6]
  cAMP EC50: 48 nM

B11: IP237 (Fc fusion)
chain: YSEGTFTSDYSKLLEEEAVRLFIEWLVKGPGGGGGSGGGGSGGGGSGGGGSATHTCPPCPAPEF
[1]
  cAMP EC50: 0.095 nM
[2]
  cAMP EC50: > 1800 nM
[3]
  cAMP EC50: 0.012 nM
[4]
  cAMP EC50: 0.29 nM
[7]
  cAMP EC50: 170 nM
[5]
  cAMP EC50: 0.023 nM
[6]
  cAMP EC50: 0.14 nM

B12: IP235 (Fc fusion)
chain: YSEGTFTSDYSKLLEEEAVRLFIEWLVKGPGGGGGSGGGGSATHTCPPCPAPEF
modifications: cysteine pairing not given here; also: fused to IgG1-TM Fc
[1]
  cAMP EC50: 0.23 nM
[2]
  cAMP EC50: > 9900 nM
[3]
  cAMP EC50: 0.021 nM
[4]
  cAMP EC50: 0.6 nM
[7]
  cAMP EC50: 2600 nM
[5]
  cAMP EC50: 0.037 nM
[6]
  cAMP EC50: 0.65 nM

B13: IP127 (Fc fusion)
chain: YSEGTFTSDVSSYLEEEAVREFIEWLLAGGAAAGGSGSTASSGSGSATGGGGAATHTCPPCPAPEF
[1]
  cAMP EC50: 0.087 nM
[3]
  cAMP EC50: 0.12 nM
[4]
  cAMP EC50: 0.6 nM
[5]
  cAMP EC50: 0.047 nM
[6]
  cAMP EC50: 17 nM

B14: IP383 (Fc fusion)
chain: YSEGTFTSLYRILLEEEAVRLFIEWLLAGGGGGGSGGGGSGGGGSGGGGSATHTCPPC
[1]
  cAMP EC50: 0.19 nM
[2]
  cAMP EC50: > 1610 nM
[4]
  cAMP EC50: 20.1 nM
[7]
  cAMP EC50: 46.7 nM
[5]
  cAMP EC50: 0.13 nM
[6]
  cAMP EC50: 0.976 nM

B15: IP257 (Fc fusion)
chain: SEGTFTSDYSKLLEEEAVRLFIEWLVKGPGGGGGSGGGGSGGGGSGGGGSATHTCPPCPAPEF
[1]
  cAMP EC50: 7.2 nM
[3]
  cAMP EC50: 180 nM
[4]
  cAMP EC50: 46 nM
[7]
  cAMP EC50: 4300 nM
[5]
  cAMP EC50: 1.3 nM
[6]
  cAMP EC50: 190 nM

B16: IP236 (Fc fusion)
chain: YSEGTFTSDYSKLLEEEAVRLFIEWLVKGPGGGGGSGGGGSGGGGSATHTCPPCPAPEF
modifications: cysteine pairing not given here; also: fused to IgG1-TM Fc
[1]
  cAMP EC50: 0.15 nM
[2]
  cAMP EC50: > 5500 nM
[3]
  cAMP EC50: 0.016 nM
[4]
  cAMP EC50: 0.3 nM
[7]
  cAMP EC50: 460 nM
[5]
  cAMP EC50: 0.024 nM
[6]
  cAMP EC50: 0.21 nM
